Measurements: the DeepSol protein solubility set

Assay: soluble on expression in E. coli; label from the status in PepcDB or PDB records

Row | Sequence | soluble on expression in E. coli
1 | GPGSMPLERSFIDPGHASMGYEAGLIPRLRRDSIVRGVLEENEDMLREIDLLRDTVTKQAQELFTATKRIHVLESRLARLEGAEDASHERTDDSDNVEEVTSVDKAGILRSIFRAISSCQFGDRHTRIRAYKQGLVRKSAEKARDFGEKSEKKSELPGKEQQDFLGHAFHESNKRLDEVSSLLQSYRKTPSFLVSAYDELVIDCMMEIIRLSKKMNLMTVGDFGALAD | not soluble
2 | MSLDPFSIVQDFRSIAGEEALEIAESGEENDNEQFQNWELEAKFWDLVGLLVEYRTSETVDKDINVHSYNSNVVFQKQLLQSNKGIYEIWLIKSWLEANIGIPERPSSLCTTKWSSSMIAGTVKSMDSDSILRDPTTNLQPDDRQNDHAFFVYAFRLLLAGQFEKLTEECEFTDNLTLNLILRGMESYVDPNVDTDMTDEYASQQGIKKHALWRRSVYALSQDPLLDPYEAAIYTYLSGDSPTNLRIDGLDWETELLIYVNQIWNVTMENYLIEHGRVDNDELITDMDTACPSLSQVLNILAAKYPDESEHPIRVLTASVLLNTIEPVMKSSTDMLLDVIKGRDEDNALFNESYLLRILTNLTIFLDIVSPDTIDISNKSKLLTSYISLLSYYGLYDVIPVFVSFLSQEEIVETYSFFLTNLIDPNLRQKQMEISKYLGLPIANILRRTAQRIFEETDQYYIVDSDIELTNEVSEVDQRLMNGVEWLIENGLYTDSIDTIIALSRRFLINGKVKALELFVDNHDVPNLLKEYQLERLSSQEEDHDLKTTELLQYTSLLSTFKKQEEWVKSSQLFNTESNLRSLIKQFKGFSNTIIKLVTTFLVDLIDNEEVNDSDVLYEIRALYTPFLIMELHNNLISASENLKVSTFVQEAIDLSILVANETDKIYLLFQSNGKLTTYLQMVAKASALFGREGHHHHHH | not soluble
3 | MSLNRQSKAAVPALREISPVKQQVSEEKKEIQEDSSILVDLKGAVQKEGVYKLTASSRVRDVIELAGGLTSEADKHAINFAEKLTDEQVVYVPKQGEEISVLPRSLVSGKKETASKDQSKVHINKASLEELQHIPGIGAKRAQDIIDMRDKLGGFKALEDLRQVSGIGEKTLEKLKDDIFLDEGHHHHHH | soluble
4 | MGSDKIHHHHHHMTSYRIGIDVGGTHTDAVLLDETNQVMAETKAPTTEDVSRGIYQAMRDVIESAQVDRTRIDYAMLGTTHCTNAIVERKRLNTVGIIRIGAPATLAVKPLIGVPDDLRTLLGKHVYIVSGGHEFDGREIASLDEDHLYEIAHEIKGAVDSVAITSVFSPVSDNHEVRAAEIIREILGEAIPISLSKEIGSVGLLERENATILNASVVNVAQATAEGFVAALKEEGIEANVFFGQNDGTLMSVEYAKKYPILTIACGPTNSLRGASFLTGKENAIVVDVGGTTTDIGVLAQSFPRESSLAVEIGGARTNFRMPDLVSIGLGGGTIIRVNETDGTFTIGPESVGYRLPEKGLVFGGDTLTTTDVVVALGRANIGDRSKVAHLDKELLRRIYDRMVEMVEMAVDQMKTSSGDAPVILVGGGSILLPDQLRGASEVMKPEHLGVANAIGAAIAQVSGQIERVFSLDERGREQTLAYAKDLAREEAIKAGADPSDLTIVDVEDVPLAYLPGNATRIRVKAAGPLGSASAEQYEKGNVIP | not soluble
5 | MNRYRQLAELFKTQIQQNTWRAGEKLPSVRVTSRNHSVSAGTVLQAYQLLEAQGWVAAKPQSGYFVTAELDRLEPSPPATSVYRSNINDELYDYLKNQASPDAMKFGSAFPDPALFPLDALNRNLASSGRKMGPETLLDNLPPGSESLRRLIAQRYIQQGMVLTHDDIVITSGALEALNLSLQAVTQPGDTIVVESPTFYGALQAIERLGLKAIEISVDPRIGHSLQQIEAAFTDHDVRACWLMTNFHNPTGMSLNDEQKQRIVELADKHDVYLIEDDVYSELYFSNKKPSSLRTFDTQDRVLHCGSFSKSLCPGYRLGWVVNKRFNEHLQKLQLISTLSGSAPIQQGIAHYLQNDSYDNHLRKLRKNLEQRQSTFIELIGKYFPKSIHYTQPEGGYFLWVELPESKCGKAIYQKLLEDNITVAFGKLFSVGTDYENYLRLNTSLPCNDELEEAVKTIGELLH | not soluble
6 | MFRLRLISGFNFAPIIADAIVDLSKDFFQSDNSEVCCGQILYLAISDEEGPGKPILDSKHVEVILTLDLPEDMDVYEKFGLSAYRQHILLRITQEARDQNALLTIKDLVKLLKSSYSTIIRDLKYFREKGLYVPLRGIVKDIGPSSHKSKIVELYLKGYTTTEIQRSTRHSLQSIERYIKDFSRVSILTQKGESIDNIRLIVGISERLVKEYQELFIKYKDGDNKQRVEELIDNITVYDSPMSFKKNSGMRM | not soluble
7 | GHRVWIMYAQPYQVTLQEQQQELAQLEMARSALDSLSELICLQDCQGNLLTTNRAFDQFWEGRREEAITATASRVATRKSERKWTTDTQGRSCLLEVNLSSLVSPS | not soluble
8 | MTSGGNSIEPSVVAEAEKMLFCYQYDQTITISITSSADPCPLCNGGFLDEYVDPNPNPIPNLILPMSDPISSRFSFIPVMDFTNPSFLGESMEPQSTQQQLNAFDPNQLSDQANPLAGNHGDYFFGRGLEDLI | not soluble
9 | MKHNLNAHEARVIGCLLEKQVTTPEQYPMSLNGLTLACNQKTSRDPVMELSESQVQQTLDFLLKKHLIRSQSGNRVMKYEHRFCNSEFGDLKFSPAEVAVITLLLLRGAQTPGELRTRTNRMYEFADVAETEETLKTLSLREDGPFVVRLAREPGKRESRFMPLFSGDVASSLLAAGEAEENNHTLEANPRETHSFENIALEKTALEARVAQLEQQVIQLSRRLDDVLIQLDDMKKLRVGIVGLGGIAQKAYLPILTQAQGWQLVGAFSPNQAKAQPLCDSYRMRYFSRLDTLAAASDAVFVHSSTASHFQVVHDLLQAGVHVYVDKPLAETREQSEQLIELADKQHLALMVGFNRRFAPLYQQLKQQASSPVSLRMEKHRLSSIGPHDLGFTLLDDYLHVVDTALWLGGEGARLTGGAVQTNAQGQMLYAEHHFQQGGCLITTSMHRQAGTQRESVQVISDGACYHITDMRQWQQASAGQVISQPAPGWQTTLEQRGFTGAVHHFIEAVSNQTRPQVSGEDAIVAQRMIERILQQ | not soluble
10 | MSLSSQPRFIHLRTHTDFSMIDSIVKVKPLVKACAANEMVAMGLTDFTNFCGVVSFYSEMLSSGMKPIIGADVKVKSPLCGDEYFDLTLLAKNNEGYRNITLLLSKAYQRGYNDLPYIDQDWLIEHRDGVIILSGGTQGDVGKKLLKENVAEIESAVAFYQEFFADHFYLALSRTGRPNEERYIQAALKLAERCDLPLVATNDVMFLNTEDFEAHEIRVAIHDGYTLDDPKRPKCYTSQQYFRSEEDMCKLFADEGHHHHHH | soluble
11 | ATRDFLQRAEAAYKTDGGAAGLGQKAFVKMMQEVCELPSMVAYSLFKRLTGCEAGEEEGAAVPRDTFIKFWTGRGLVTAPPPKRAFDSLRPDGQDYLTFADFWPMMECVLRYHPGLEFLAETQEFQRKYAETVIHRIFYSLNKCGSGRLTFREFRSGELMDALYALDRENDINKILKFFSYEHFYVIYCKFWELDQDHDFQLDKTDLAHYSNCALSYVIVDRIFEEAPRKFKAGTPPGKMCYEDFVWFILSEEDKTTDTALTYWFRCVDLDGDGVIRPREMLYFYEEQLRRLEGWNQEPVQFEDLLCQLHDMLSPAKEGAFTLRDLKRTKPQSGLFFSSLFSLHKFVGFENRDPFAQRAEAAEFTGLSDWDKFAKIEYFRLASEDD | soluble
12 | MGATGVASQRKTIEESIERNKEKYIETSHDIHANPEIGNQEFYASRTLSLLLGSAGFQLQHNIAGHETGFIARKSSGKQGPAIAFLAEYDALPGLGHACGHNLIGTISVAAAIALSETLEEIGGEVVVFGTPAEEGGPNGSAKSSYVKAGLFKNIDAALMIHPSGKTATTSPSLAVDPLDFHFYGKTAHAAASPEEGINALDAVIQLYNSINALRQQLPSDVKIHGVITEGGKAPNIIPDYAAARFFIRAATRKRCAEVTEKVKNIAQGAALATDTKVKIHQFQNEIDELLVTKTYNDVVAEELELLGEDVNRKERFGIGSTDAGNVSQVVPTIHPYIKIGPDDLIAHTNEFREAARSELGDKALITSAKALANTAYRLITEEGLLEKVKEEFREAQRNQG | not soluble
13 | VQREDGSWLLDGLIAVPELKDTLGLRAVPEEEKGVYHTLSGMIMWLLGRLPQTGDITFWENWRLEVIDMDSKRIDKVLATKIDNQPTEDPKPVA | soluble
14 | YTEEELRVLLAESYKSGEIRKSELKYMNNIFTFDKRMAKEIMVPRNEMVSLSLDEDSISNLQETVKQTKYTRYPVVREDKDNVIGVINMKEVLFSMLTKDFSIKKHQIEPFVQPVIHVIETIPIYKLLLKMQKERTHMAILIDEYGGTSGLVTVEDIIEEIVGEIRDEFDADEVPHIRELGKDHYLLNAKLLISDVNSLLGTDLSE | soluble
15 | MSLYLFGESDHYLWLPRGLLYPLQDKFKQVSVEDRRKVQRSISVEFKGELTFEQELALSDMTSKENGLLHAETGFGKTVLGAALISERKTKTIILVHNKQLLDQWLDRLNCFLTFEEEEAIRYTASGREKVIGYVGQYGGTKKWLSKLVDVVMIQSLFKLENSQSLLDEYEMMIVDECHHVSALMFEKVVAQFRGKYLYGLTATPERKNGHEPIVFQRIGEILHTADKREGHHHHHH | not soluble
16 | KTTVIPESLKILGWVEFTRLEPWGIKTPARIDTGANTSSMSARDINVFKRNGKTWVRFTFDFKKGTAERSIEIERPLVRMVKIKQHDGPSQERPVISMEICLADEIREAEFDLIDRRALNYPVLLGRKALAGYVVVDPARAYLTKAV | not soluble
17 | MGHHHHHHSHNEPEDSKLRFETYQLIWQQMKSENERLQEELNKNLFDNLIEFLQKSHSGFQKNSRDLGGQIKLREIPTAALVLGVNVTDHDLTFGSLTEALQNNVTPYVVSLQAKDCPDMKHFLQKLISQLMDCCVDIKSKEEESVHVTQRKTHYSMDSLSSWYMTVTQKTDP | not soluble
18 | MAALAGDEAWRCRGCGTYVPLSQRLYRTANEAWHGSCFRCSECQESLTNWYYEKDGKLYCHKDYWAKFGEFCHGCSLLMTGPAMVAGEFKYHPECFACMSCKVIIEDGDAYALVQHATLYCGKCHNEVVLAPMFERLSTESVQDQLPYSVTLISMPATTECRRGFSVTVESASSNYATTVQVKEVNRMHISPNNRNAIHPGDRILEINGTPVRTLRVEEVEDAIKQTSQTLQLLIEHDPVPQRLDQLRLDARLPPHMQSTGHTLMLSTLDTKENQEGTLRRRSLRRSNSISKSPGPSSPKEPLLLSRDISRSESLRCSSSYSQQIFRPCDLIHGEVLGKGFFGQAIKVTHKATGKVMVMKELIRCDEETQKTFLTEVKVMRSLDHPNVLKFIGVLYKDKKLNLLTEYIEGGTLKDFLRSVDPFPWQQKVRFAKGISSGMAYLHSMCIIHRDLNSHNCLIKLDKTVVVADFGLSRLIVEERKRPPVEKATTKKRTLRKSDRKKRYTVVGNPYWMAPEMLNGKSYDETVDVFSFGIVLCEIIGQVYADPDCLPRTLDFGLNVKLFWEKFVPTDCPPAFFPLAAICCKLEPESRPAFSKLEDSFEALSLFLGELAIPLPAELEDLDHTVSMEYGLTRDSPP | soluble
19 | MSLDSWSRNFELLINSRTPLIWIRTKEEERLYKVIDKSCKKLNIKRFVSWDCVNGIKGVLNENGKFSNNPMGVLNWIKAQTSEIPTILLVRDFHKFYDDPSISRTIKELSSSLRETNNNLILSSHILPSSEELDDLITILNLPLPDLSELTALIKKIAFNTDSDLSEQDLNELAIASSGLSEIKVKQVTAKALAQRGKISKFDIKDMLEEKKQVIARSEGHHHHHH | soluble
